Reference: patent publication US12227570B2, “Anti-CEACAM6 antibodies and methods of use” (Singapore Health Services PTE LTD, priority 2016, dated 2025)
“And” between values parts separate entries of the source, which are not always exact repeats. Identical values can stand only once. “Also recorded” adds a separate entry of the source.

B1: GR6A04-MMAE (conjugate)
VH: SGPELVKPGASVKMSCKASGNTFTSYVMHWVKQKPGQGLEWIGYINPYNDGTKYNEKFKGKATLTSDKSSSTAYMELSSLTSEDSAVYYCARSTARATPYFYAMDYWGQGTSVTVSS
VL: DILMTQSPSSLAVTAGEKVTMRCKSSQSLLWSVNQNSYLSWYQLKQGQPPKLLLYGASIRESWVPDRFTGSGSGTDFTLTISNVHVEDLAVYYCQHNHGSFLPYTFGGGTKLEIK
B2: Hu-GR6A04: human chimeric mAb with GR6A04 VH and VL cloned into a human Ig constant region backbone, expressed in CHO cells (antibody, V domains shown)
VH: B1 VH
VL: B1 VL

What was measured:
PC-9 and A549 cells = assay: Flow cytometry binding of GR6A04 derivatives; format: cell-based
Procedure: Cells were harvested as single cell suspensions using trypsin. 1E5 cells were used per sample, and incubated with 100 μl of mAb culture supernatant for 30 min. Cells were then washed with 1% bovine serum albumin in PBS, and further incubated with 100 μl of goat anti-mouse antibody fluorescein isothiocyanate (FITC)-conjugated (1:500, DAKO, Denmark) for 15 min at 4° C. in the dark. Cells were again washed and resuspended in 200 μL of 1% BSA/PBS for analysis on Guava® easy Cyte 8HT Benchtop Flow Cytometer (Merck Millipore, USA). For interrogation of […] binding, cells were fixed with 4% PFA/PBS (Affymetrix, USA) at room temperature for 10 min, washed in PBS, and permeabilised with 0.1% triton/PBS for 5 min at room temperature, before proceeding with incubation with mAb supernatant/primary antibody. For staining with propidium iodide, PI was added to a final concentration of 5 μg/mL for 5 min just prior to analysis by the flow cytometer.

H1299 = assay: ADC dose-response, CellTiter-Glo viability assay; format: cell-based; conditions: H1299 non-binding cells
Procedure: (§1) Cells were seeded into a black coated 96 well plate (Grenier Bio-one, UK) at a range of density from 1000-5000 cells per well (depending on the cell type used) and 90 μL per well. The plate was then incubated for 24 hours at 37° C. in humidified air with 5% CO2. After 24 hours, 10 μL of mAb or buffer was added to each well and the plate was again placed at 37° C. in humidified air with 5% CO2. 4 days after addition of mAb or buffer, 100 μL of CTG substrate (Promega, Wisconsin, USA) was added to each well. The plate was then left in the dark for 10 minutes, with vigorous shaking. The cell viability of the samples was then quantified using Tecan I-control (Tecan, Switzerland).
(§2) GR6A04 and a commercial mouse IgG1 isotype antibody (Clone MG1.45 from BioLegend) were directly conjugated with MMAE toxin (Moradec, San Diego, USA) at a DAR of 3.0 and 3.3 respectively. Dose-response curve for the conjugated mAbs were established with the CTG assay with a serial dilution range of 0 to 4.5 μg/ml. The cell viability of the cells was measure 4 days post treatment as described previously.

A549−GR6A04+ cells [1] = assay: ADC dose-response, CellTiter-Glo viability assay; format: cell-based; conditions: viability 4 days post treatment
Procedure: as §1, §2

A549−GR6A04− populations = assay: ADC dose-response, CellTiter-Glo viability assay; format: cell-based; conditions: A549−GR6A04− non-binding cells
Procedure: as §1, §2

PC-9 [2] = assay: ADC dose-response, CellTiter-Glo viability assay; format: cell-based; conditions: viability 4 days post treatment
Procedure: as §1, §2

A549−GR6A04+ cells [3] = assay: Subcutaneous xenograft model; format: in vivo, NCr Nude mice; conditions: for tumour growth versus buffer control: 10 mg/kg, 3 doses on D0, D4 and D8, start at tumour size >150 mm3
Procedure: Xenograft models were established using A549−GR6A04+ cells in NCr Nude mice. 5E6 cells in DMEM basal media were mixed at a 1:1 ratio with Matrigel, and injected subcutaneously at a volume of 200 μl. Tumours were allowed to form and reach a size of >150 mm^3, before they were randomised into 5 groups of 5 mice each. The groups were treated with mAbs as follows: (1) Buffer control; (2) GR6A04-MMAE; (3) Hu-GR6A04; (4) GR6A04; (5) MG1.45-MMAE isotype control. mAbs were injected via tail vein injection at a total volume of 100 μl. Each dose, were applicable, is at 200 μg (equivalent to 10 mg/kg), and treatment was done every 4 days, for a total of 3 doses (Day 0, 4 and 8). Tumour size was monitored over 50 days.

A549−GR6A04+ = assay: ADCC reporter bioassay (Promega, Luciferase reporter for FcγR); format: cell-based
Procedure: (§3) ADCC activity was measured using a reporter bioassay (Promega; ADCC Reporter Bioassay, #G7010). The ADCC bioassay was carried out according to the manufacturer's protocol Briefly, PC-9 and A549 cells were seeded at 5,000 cells per well in a 96-well clear bottom black tissue culture plates (Corning; #3904) in low 4% IgG-serum (Promega; #G711A) media and allowed to attach and spread overnight. Serial dilutions of Hu-GR6A04 were incubated in triplicate wells for approximately 15 min at 37° C., 5% CO2. Following incubation, engineered effector cells were added to the wells at approximately 150,000 cells per well. After 6 hours, Bio-Glo™ Luciferase Assay Substrate (Promega; #G719A and #G720A) was added to the wells and luminescence was measured using the Infinite® 200 microplate reader (Tecan).

PC-9 [4] = assay: as above; format: cell-based
Procedure: as §3

| Molecule | flow cytometry binding (PC-9 and A549 cells) | effect on cell growth (H1299) | EC50 (A549−GR6A04+ cells [1]) [nM] | effect on cell growth (A549−GR6A04− populations) | EC50 (PC-9 [2]) | tumour growth versus buffer control (A549−GR6A04+ cells [3]) | tumour growth (A549−GR6A04+ cells [3]; I.V. 10 mg/kg, every 4 days for 3 doses, throughout the 45 days of study) [fold] | EC50 (A549−GR6A04+) [nM] | EC50 (PC-9 [4]) [nM] |
| --- | --- | --- | --- | --- | --- | --- | --- | --- | --- |
| B1 | comparable to unconjugated GR6A04; also recorded: not affected after conjugation | did not have an effect on cell growth | 3.33 | did not have an effect on cell growth | 19.8 nM and 19.6 nM | little tumour growth | < 2 | – | – |
| B2 | comparable to GR6A04 | – | – | – | – | repression of tumour growth; also recorded: slower growth compared to the buffer control | – | 1.33 | 39.6 |
